The values that follow come from patent publication US12473545B2, “Regulation of RAN translation by PKR and eIF2α-P pathways” (University of Florida Research Foundation, Incorporated, priority 2017, dated 2025).

“Also recorded” adds a separate entry of the source.

The target in one series is T1, PKR (Homo sapiens, UniProt P19525).
T1 construct: endogenous in cells; host or cells: HEK293T
In words: Protein blot of phospho-PKR (T446 and T451) in HEK293T cells transfected with repeat expansion constructs. To be noted: for G4C2 repeat-expansion induced p-PKR levels: HEK293T, G4C2 expansion construct, dose series. Format: cell-based. The protocol:
(§1) HEK293T cells were cultured in DMEM medium supplemented with 10% fetal bovine serum and incubated at 37° C. in a humid atmosphere containing 5% CO2. DNA transfections were performed using Lipofectamine 2000 Reagent (Invitrogen) according to the manufacturer's instructions.
(§2) Transfected cells in each well of a six-well tissue-culture plate were rinsed with PBS and lysed in 300 μL RIPA buffer with protease inhibitor cocktail for 45 min on ice. DNA was sheared by passage through a 21-gauge needle. The cell lysates were centrifuged at 16,000×g for 15 min at 4° C., and the supernatant was collected. The protein concentration of the cell lysate was determined using the protein assay dye reagent (Bio-Rad). Twenty micrograms of protein were separated in a 4-12% NuPAGE Bis-Tris gel (Invitrogen) and transferred to a nitrocellulose membrane (Amersham). The membrane was blocked in 5% dry milk in PBS containing 0.05% Tween-20 (PBS-T) and probed with the anti-Flag (1:2000), anti-Myc (1:1000), anti-HA (1:1000), or rabbit polyclonal antibodies (1:1000) in blocking solution. After the membrane was incubated with anti-rabbit or anti-mouse HRP-conjugated secondary antibody (Amersham), bands were visualized by the ECL plus Western Blotting Detection System (Amersham).
Therefore, the ability of other RAN positive repeat expansions to activate PKR and the role of PKR on RAN translation were tested.
[…]. Transient transfections of expansion constructs treated with or without metformin were performed. […].

In series [1] the test system is glycine-proline (GP) RAN protein. Kind of series: GP RAN protein levels in peripheral blood leukocytes of a C9ORF72 expansion-positive human subject. The class given is in vivo. To be noted: single human subject; 500 or 1000 mg/day Metformin Hydrochloride Extended Release Tablets; 10 to 30 days; vs pretreatment. An excerpt:
[…]. […] […].

A further series relates to RAN translation. In words: Immunoblot of RAN protein levels in HEK293T cells transfected with repeat expansion constructs. To be noted: for RAN polyGP levels: HEK293T transiently transfected with G4C2 expansion construct, dose series; for polyLPAC RAN protein levels: CCTG (CCUG) expansion construct; for polyGP RAN protein levels: GGGGCC (G4C2) expansion construct. The class given is cell-based.
Source text: Diagrams of CAG, CCTG and GGGCC repeat expansion constructs used to test effects of protein kinase R (PKR) on repeat associated non-ATG (RAN) translation are shown in FIG. 1A. Briefly, constructs have a 6× stop-codon cassette (e.g., two stops in each reading frame, upstream of the repeat expansions and C-terminal epitope tags). A diagram of PKR vectors expressing wildtype (PKR-WT), the dominant negative K296R mutant form of PKR (PKR-K296R), or the C-terminal only domain (PKR-CT) are shown in FIG. 1B.
(§3) HEK293T cells were transfected with RAN protein-expressing and PKR-expressing constructs.
as §1, §2
Next, the effects of PKR overexpression and inhibition on RAN protein accumulation across several types of repeat expansions were tested. […] For CAGEXP expressing cells, PKR-WT overexpression led to increased p-PKR and p-eIF2α, and increased RAN polyAla protein levels. In contrast, expression of the dominant-negative PKR-K296R mutation decreased polyAla RAN protein levels. […] The polyGln reading frame, which contains an AUG initiation codon, is not affected by PKR (FIG. 7A).
. […] Protein blots were run on protein lysates from HEK293T cells transfected with various repeat expansion constructs shown in FIG. 13A. In FIG. 13B, the lanes labeled KMQ, show: RAN poly-Ser-Flag, RAN poly-Ala-HA, ATG initiated polyGln-Myc. In FIG. 13B the lanes labeled KMQ has a methionine encoding ATG immediately 5′ to the CAG repeat expansion and located within the polyGln reading frame. The lanes labeled KKQ indicate the KKQ vector contains a CAG expansion without an AUG initiation codon, and indicates: RAN polySer-Flag, RAN polyAla-HA, RAN polyGln-Myc. These constructs contain epitope tags that are incorporated into the C-terminal regions of the ATG-initiated poly-Gln and non-ATG initiated RAN proteins (poly-Gln, poly-Leu-Pro-Ala-Cys and poly-Gly-Pro) which are expressed across these repeat expansions. The lane labeled CCTG expresses the following RAN proteins: RAN polyLPAC-Flag, RAN polyLPAC-HA, RAN polyLPAC-Myc. The lane labeled G4C2 is designed to detect the following RAN proteins: RAN polyGP-Flag, RAN polyGR-HA, RAN polyGA-Myc. […]
(Immunoblotting shows a protein as a band on a membrane.)

The subject of a further series is eIF2α. In words: Immunoblot of phosphorylated eIF2α in transfected HEK293T cells. Format: cell-based. As to conditions: HEK293T co-transfected with repeat expansion constructs. As for the experimental part: as §3, §1
as §2, with “System (Amersham). […]” for “System (Amersham).”

Another series relates to C9-500 BAC mice. Kind of series: ICV injection of AAV expressing PKR-K296R in C9-500 BAC transgenic mice. Format: in vivo. To be noted: for GA RAN protein aggregates in the retrosplenial cortex (IHC): analysis at 3 months; for open field center time: vs C9 EGFP control animals. From the text:
Schematic diagrams of AAV2/9 constructs used for rAAV injections into a BAC transgenic mouse model of C9orf72 ALS/FTD containing 500 G4C2 repeats (C9-500 BAC) are shown in FIG. 3A. Briefly, animals were sacrificed for analysis at 3 months of age after […] intracerebral ventricular (ICV) injections with AAV2/9 virus expressing either EGFP or the dominant negative form of PKR(K296R).
Representative immunohistochemical (IHC) staining of GA RAN protein aggregates in sections of the retrosplenial cortex from C9-500 BAC mice (FIG. 3B, left). Quantification of GA RAN protein aggregates was also performed (FIG. 3B, right). Analysis was done in a blinded fashion.
AAV vectors expressing the PKR under the control of the cytomegalovirus enhance/chicken beta actin (CBA) promoter, a woodchuck hepatitis virus post-transcriptional-regulatory element (WPRE), and the bovine growth hormone polyA were generated by Polyethylenimine Linear (PEI, Polysciences) transfection into HEK293T cells. Cells were co-transfected with AAV helper plasmids pDP8.ape to produce recombinant adeno-associated viral (rAAV) vector rAAV2/8.
Neonatal pups were injected within 0-12 hours after birth. The naive pups were covered in aluminum foil and completely surrounded in ice for 3-4 minutes, resulting in the body temperature being lowered to <10° C. The pups were considered completely cryoanesthetized when all movement stops and the skin color changes from pink to purple. 2 μl of virus ([…]) was slowly injected into the ventricle using 10 μl syringes (30 degree beveled). After injection pups were allowed to completely recover on a warming blanket and then returned to the home cage.
rAAV-mediated delivery of dominant negative PKR-K296R, or EGFP as a control, was performed using intracerebroventricular (ICV) injections at P0 in C9orf72 ALS/FTD BAC transgenic mice (C9-BAC) and non-transgenic (NT) littermate controls. A schematic depiction of each construct is described in FIG. 10A. Four groups of animals (EGFP/C9, EGFP/NT, PKR-K296R/C9 and PKR-K296R/NT) were aged to 3 months. […] Similarly, soluble GP levels, detected by meso-scale detection (MSD) assays, were reduced in brain lysates from C9 PKR-K296R treated animals compared to C9 EGFP controls.

Setting [2] is: HEK293T, CAG expansion construct.

T1 sequence (P19525 whole entry): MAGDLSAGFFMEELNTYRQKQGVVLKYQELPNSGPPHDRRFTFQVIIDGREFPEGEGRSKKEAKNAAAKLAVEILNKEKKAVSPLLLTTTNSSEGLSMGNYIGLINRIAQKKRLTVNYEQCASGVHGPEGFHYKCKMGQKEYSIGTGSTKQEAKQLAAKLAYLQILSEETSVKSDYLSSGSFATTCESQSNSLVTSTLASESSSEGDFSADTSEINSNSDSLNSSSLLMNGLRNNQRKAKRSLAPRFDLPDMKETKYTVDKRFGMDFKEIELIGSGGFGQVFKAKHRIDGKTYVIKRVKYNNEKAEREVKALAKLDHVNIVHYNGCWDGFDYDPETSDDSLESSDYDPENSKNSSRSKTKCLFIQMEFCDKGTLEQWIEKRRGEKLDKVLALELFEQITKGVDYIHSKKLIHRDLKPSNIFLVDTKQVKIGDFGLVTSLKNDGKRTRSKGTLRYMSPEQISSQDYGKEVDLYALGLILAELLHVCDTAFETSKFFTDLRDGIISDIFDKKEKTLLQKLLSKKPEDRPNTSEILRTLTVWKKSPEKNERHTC

With `CN(C)C(=N)NC(=N)N` [metformin, reference compound], the “PKR phosphorylation at T446 and T451” value on PKR (HEK293T transiently transfected with expansion constructs, with or without metformin) was “decreases”. Also, at PKR, the “G4C2 repeat-expansion induced p-PKR levels” value is listed as “dose-dependent inhibition”. In addition, the “glycine-proline (GP) RAN protein levels in leukocyte lysates from peripheral blood” value in series [1] is “Dose dependent reduction”. In the series on RAN translation (HEK293T cells expressing CAG, CCUG or G4C2 expansion RNAs, protein blot), the RAN protein levels entry is listed as “decreases”. Moreover, the “RAN polyGP levels” value with RAN translation is reported as “dose-dependent inhibition”. Besides, the “polyAla RAN protein levels” value in the series on RAN translation (setting [2]) was “reduced RAN protein levels”. In addition, in the series with RAN translation (HEK293T), the “polyLPAC RAN protein levels” value is on record as “reduced RAN protein levels” and the “polyGP RAN protein levels” value is “reduced RAN protein levels”.

Regarding `O=C(COc1ccc(Cl)cc1)NC1CCC(NC(=O)COc2ccc(Cl)cc2)CC1` (stereo not drawn) [ISRIB, reference compound], the “polyAla RAN protein levels” value with RAN translation (HEK293T transfected with expanded CAG and PKR-WT constructs) is “reduces”; in the series with RAN translation (HEK293T transfected with expanded CAG and PKR-WT constructs, listed as ISIRB), “decrease”.

With `CCCCNC(=N)NC(=N)N` [buformin, reference compound], the “G4C2 repeat-expansion induced p-PKR levels” value at PKR was “dose-dependent inhibition”. Moreover, in the series on RAN translation, the “RAN polyGP levels” value is given as “dose-dependent inhibition”.

On to `[H]/N=C(/N)N/C(=N/[H])NCCc1ccccc1` [phenformin, reference compound], for which, on PKR, the “G4C2 repeat-expansion induced p-PKR levels” value is listed as “dose-dependent inhibition”. The “RAN polyGP levels” value in the series on RAN translation is given as “dose-dependent inhibition”.

B1: TARBP2: PKR inhibitor, transactivation response element RNA-binding protein, overexpressed by co-transfection (protein, UniProt Q15633 1-366, looked up)
RISC-loading complex subunit …: MSEEEQGSGTTTGCGLPSIEQMLAANPGKTPISLLQEYGTRIGKTPVYDLLKAEGQAHQPNFTFRVTVGDTSCTGQGPSKKAAKHKAAEVALKHLKGGSMLEPALEDSSSFSPLDSSLPEDIPVFTAAAAATPVPSVVLTRSPPMELQPPVSPQQSECNPVGALQELVVQKGWRLPEYTVTQESGPAHRKEFTMTCRVERFIEIGSGTSKKLAKRNAAAKMLLRVHTVPLDARDGNEVEPDDDHFSIGVGSRLDGLRNRGPGCTWDSLRNSVGEKILSLRSCSLGSLGALGPACCRVLSELSEEQAFHVSYLDIEELSLSGLCQCLVELSTQPATVCHGSATTREAARGEAARRALQYLKIMAGSK
For B1, the “steady state levels of eIF2α-P (p-eIF2α)” value with eIF2α is given as “reduces; also recorded: decrease”. Besides, in the series on RAN translation (HEK293T co-transfection, overexpression), the “RAN polyAla levels expressed from CAG and CUG (CTG) expansions” value is recorded as “decreases”. Moreover, the “polyLPAC RAN protein levels” value with RAN translation (HEK293T) is listed as “decreases”.

B2: PKR-K296R: dominant negative K296R mutant form of protein kinase R, expressed from plasmid or AAV vector (protein, UniProt P19525 2-551, looked up, variant K296R)
Interferon-induced, …: AGDLSAGFFMEELNTYRQKQGVVLKYQELPNSGPPHDRRFTFQVIIDGREFPEGEGRSKKEAKNAAAKLAVEILNKEKKAVSPLLLTTTNSSEGLSMGNYIGLINRIAQKKRLTVNYEQCASGVHGPEGFHYKCKMGQKEYSIGTGSTKQEAKQLAAKLAYLQILSEETSVKSDYLSSGSFATTCESQSNSLVTSTLASESSSEGDFSADTSEINSNSDSLNSSSLLMNGLRNNQRKAKRSLAPRFDLPDMKETKYTVDKRFGMDFKEIELIGSGGFGQVFKAKHRIDGKTYVIRRVKYNNEKAEREVKALAKLDHVNIVHYNGCWDGFDYDPETSDDSLESSDYDPENSKNSSRSKTKCLFIQMEFCDKGTLEQWIEKRRGEKLDKVLALELFEQITKGVDYIHSKKLIHRDLKPSNIFLVDTKQVKIGDFGLVTSLKNDGKRTRSKGTLRYMSPEQISSQDYGKEVDLYALGLILAELLHVCDTAFETSKFFTDLRDGIISDIFDKKEKTLLQKLLSKKPEDRPNTSEILRTLTVWKKSPEKNERHTC
On to B2, for which the “DigiGait parameters (of 15) significantly different between C9 PKR-K296R and NT treatment groups” value in the series on C9-500 BAC mice (12 weeks) was 2. Besides, in the series with C9-500 BAC mice (12 weeks), the “DigiGait parameters improved, of 15 that differed between untreated C9-500 and NT EGFP controls” value is recorded as “nine of these parameters improved”. In the series with C9-500 BAC mice (neonatal ICV AAV injection, 3 months, vs C9 EGFP controls), the “soluble GP levels in brain lysates (MSD)” value is reported as “reduced”. The “GA RAN protein aggregates in the retrosplenial cortex (IHC)” value with C9-500 BAC mice (neonatal ICV AAV injection, vs C9 EGFP controls) is “decreased numbers of GA aggregates”; in the series with C9-500 BAC mice (neonatal ICV AAV injection, vs C9 EGFP controls, listed as PKR(K296R)) it was “fewer GA RAN protein aggregates”. The “open field center time” value was “increased center time” with C9-500 BAC mice and “reduced center time” with C9-500 BAC mice (listed as PKR(K296R)). Further, the “steady state levels of eIF2α-P (p-eIF2α)” value in the series with eIF2α is recorded as “decreases”. For the same molecule, the “polyAla RAN protein levels” value with RAN translation (setting [2]) was “decreased”; with RAN translation (HEK293T, CAG expansion construct, listed as K296R PKR), “decreases”. Also, the “ATG-initiated polyGln protein levels” value with RAN translation (HEK293T, CAG expansion with ATG in polyGln frame) is “not affected”. In the series with RAN translation (HEK293T, CAGG expansion construct), the “polyQAGR RAN protein levels” value is given as “decreased”. Further, the “polyLPAC RAN protein levels” value is on record as “decreased” with RAN translation (HEK293T) and “decreases” in the series on RAN translation (HEK293T, listed as K296R PKR). The “polyGP RAN protein levels” value is on record as “decreased” in the series with RAN translation (HEK293T) and “decreases” in the series with RAN translation (HEK293T, listed as K296R PKR).
